30 molecules from US20080044360A1 can be followed below.

Bridge positions count the residues as written; N and C are the ends. Square brackets hold non-standard residues; d marks the D form. Primed or numbered codes have the meaning given here. Side chains are listed from the residue outwards. Ends that are not written are not given here. * marks the point of attachment. GdDTPA‑thiourea = GdT is GdDTPA-thiourea (Gd-DTPA chelate attached through a thiourea); Phe(3,4-(OMe)2) = COc1ccc(C[C@H](N)C(=O)O)cc1OC; dBip = N[C@H](Cc1ccc(-c2ccccc2)cc1)C(=O)O; Phe(4-CN) = N#Cc1ccc(C[C@H](N)C(=O)O)cc1; Dip = N[C@H](C(=O)O)C(c1ccccc1)c1ccccc1; Phe(4-NH2) = Nc1ccc(C[C@H](N)C(=O)O)cc1; Gd^T(3) = GdDTPA attached via thiourea; d1Nal = N[C@H](Cc1cccc2ccccc12)C(=O)O; Pen = CC(C)(S)[C@H](N)C(=O)O; Orn = NCCC[C@H](N)C(=O)O; Gd^T = not defined here; Gd^T″ = GdDTPA-thiourea; Cbz = O=C(OCc1ccccc1)*; Dap = NC[C@H](N)C(=O)O; GdT = GdDTPA-thiourea

The chains are these.
B1: Compound ID 941 (peptide)
peptide: Cbz-GQWHCT[Orn](GdDTPA‑thiourea)RFPHHYCLYG
modifications: disulfide 5-14 (inferred); also: gadolinium complex (GdDTPA)
B2: SEQ ID NO 168 (peptide)
peptide: QWTC[dS]GDEYTWHCNYE
modifications: disulfide 4-13 (inferred); not fully specified (N-terminus); printed as QWTCsGDEYTWHCNYE
B3: SEQ ID NO 173 (peptide)
peptide: QWTCSGDEYT[dW]HCNYE
modifications: disulfide 4-13 (inferred); not fully specified (N-terminus); printed as QWTCSGDEYTwHCNYE
B4: SEQ ID NO 166 (peptide)
peptide: QW[dT]CSGDEYTWHCNYE
modifications: disulfide 4-13 (inferred); not fully specified (N-terminus, C-terminus); printed as QWtCSGDEYTWHCNYE
B5: Compound ID 893 (peptide)
peptide: {Gd^T″}-GQWHCTTD[Phe(3,4-(OMe)2)]PHHYCLYG
modifications: disulfide 5-14 (inferred)
B6: SEQ ID NO 133 (peptide)
peptide: YHACAQAGCWIW
modifications: disulfide 4-9 (inferred)
B7: SEQ ID NO 137 (peptide)
peptide: YHACYQAGCWAW
modifications: disulfide 4-9 (inferred)
B8: Compound ID 901 (peptide)
peptide: {Gd^T″}-GQWHCTTRFPHH[dF]CLYG
modifications: disulfide 5-14 (inferred); not fully specified (C-terminus)
B9: SEQ ID NO 165 (peptide)
peptide: Q[dW]TCSGDEYTWHCNYE
modifications: disulfide 4-13 (inferred); not fully specified (N-terminus, C-terminus); printed as QwTCSGDEYTWHCNYE
B10: Compound ID 878 (peptide)
peptide: {Gd^T″}-GQWHCTTRFPHAYCLYG
modifications: disulfide 5-14 (inferred)
B11: Compound ID 903 (peptide)
peptide: GdT-GQWHCTTRFPHH[dBip]CLYG
modifications: disulfide 5-14 (inferred); not fully specified (C-terminus); also: gadolinium complex (GdDTPA)
B12: SEQ ID NO 175 (peptide)
peptide: QWTCSGDEYTWH[dC]NYE
modifications: disulfide 4-13 (inferred); not fully specified (N-terminus); printed as QWTCSGDEYTWHcNYE
B13: SEQ ID NO 176 (peptide)
peptide: QWTCSGDEYTWHC[dN]YE
modifications: disulfide 4-13 (inferred); not fully specified (N-terminus); printed as QWTCSGDEYTWHCnYE
B14: Compound ID 939 (peptide)
peptide: Cbz-GQWHCT[Dap](GdDTPA‑thiourea)RFPHHYCLYG
modifications: disulfide 5-14 (inferred); also: gadolinium complex (GdDTPA)
B15: SEQ ID NO 163 (peptide)
peptide: [dY][dH][dA][dC][dY][dQ][dA]G[dC][dW][dI][dW]
modifications: disulfide 4-9 (inferred); not fully specified (C-terminus)
B16: Compound ID 883 (peptide)
peptide: {Gd^T″}-GQWHCTTD[Phe(4-CN)]PHHYCLYG
modifications: disulfide 5-14 (inferred)
B17: Compound ID 907 (peptide)
peptide: {Gd^T″}-GQWHCTTLFPHH[dY]CLYG
modifications: disulfide 5-14 (inferred); not fully specified (C-terminus)
B18: Compound ID 885 (peptide)
peptide: {Gd^T″}-GQWHCTTD[Phe(4-NH2)](Gd^T″)PHHYCLYG
modifications: disulfide 5-14 (inferred)
B19: Compound ID 904 (peptide)
peptide: {Gd^T(3)}-GQWHCTTRFPHH[d1Nal]CLYG
modifications: disulfide 5-14; not fully specified (C-terminus)
B20: Compound ID 833 (peptide)
peptide: {Gd^T″}-GQWTCSGDEYTWACNYE
modifications: disulfide 5-14 (inferred); not fully specified (C-terminus)
B21: Compound ID 967 (peptide)
peptide: {Gd^T″}-GK([Gly-Gd^T″])WHCTTYFPHHYCL[Dip]G
modifications: disulfide 5-14 (inferred); not fully specified
B22: Compound ID 966 (peptide)
peptide: {Gd^T″}-GK([Gly-Gd^T″])WHCTTLFPHHVCLYG
modifications: disulfide 5-14 (inferred)
B23: Compound ID 847 (peptide)
peptide: {Gd^T}-DWTCS[dL]DEYTWHCNYE
modifications: disulfide 4-13 (inferred); not fully specified (C-terminus); reading uncertain
B24: SEQ ID NO 171 (peptide)
peptide: QWTCSGDE[dY]TWHCNYE
modifications: disulfide 4-13 (inferred); not fully specified (N-terminus); printed as QWTCSGDEyTWHCNYE
B25: Compound ID 840 (peptide)
peptide: {Gd^T}-GQWACSGDEYTWHCNYE
modifications: disulfide 5-14 (inferred); not fully specified (C-terminus); reading uncertain
B26: Compound ID 836 (peptide)
peptide: {Gd^T″}-DWTCS[dS]DEYTWHCNYE
modifications: disulfide 4-13 (inferred); not fully specified (C-terminus)
B27: Compound ID 940 (peptide)
peptide: Cbz-GQWHCTK(Gd^T″)RFPHHYCLYG
modifications: disulfide 5-14 (inferred)
B28: Compound ID 936 (peptide)
peptide: {Gd^T″}-GQWHCTDRFPHHYCLYG
modifications: disulfide 5-14 (inferred)
B29: Compound ID 832 (peptide)
peptide: {Gd^T″}-GQWTCSGDEYAWHCNY[dE]
modifications: disulfide 5-14 (inferred); not fully specified (C-terminus)
B30: Compound ID 906 (peptide)
peptide: {Gd^T(3)}-GQWHCTTRFPHHY[Pen]LYG
modifications: disulfide 5-14; not fully specified (C-terminus)

human collagen type I, acid soluble, extracted from placenta (Sigma C7774) (human), sequence (P02452 162-1218 limits assumed, chain 1 of 2): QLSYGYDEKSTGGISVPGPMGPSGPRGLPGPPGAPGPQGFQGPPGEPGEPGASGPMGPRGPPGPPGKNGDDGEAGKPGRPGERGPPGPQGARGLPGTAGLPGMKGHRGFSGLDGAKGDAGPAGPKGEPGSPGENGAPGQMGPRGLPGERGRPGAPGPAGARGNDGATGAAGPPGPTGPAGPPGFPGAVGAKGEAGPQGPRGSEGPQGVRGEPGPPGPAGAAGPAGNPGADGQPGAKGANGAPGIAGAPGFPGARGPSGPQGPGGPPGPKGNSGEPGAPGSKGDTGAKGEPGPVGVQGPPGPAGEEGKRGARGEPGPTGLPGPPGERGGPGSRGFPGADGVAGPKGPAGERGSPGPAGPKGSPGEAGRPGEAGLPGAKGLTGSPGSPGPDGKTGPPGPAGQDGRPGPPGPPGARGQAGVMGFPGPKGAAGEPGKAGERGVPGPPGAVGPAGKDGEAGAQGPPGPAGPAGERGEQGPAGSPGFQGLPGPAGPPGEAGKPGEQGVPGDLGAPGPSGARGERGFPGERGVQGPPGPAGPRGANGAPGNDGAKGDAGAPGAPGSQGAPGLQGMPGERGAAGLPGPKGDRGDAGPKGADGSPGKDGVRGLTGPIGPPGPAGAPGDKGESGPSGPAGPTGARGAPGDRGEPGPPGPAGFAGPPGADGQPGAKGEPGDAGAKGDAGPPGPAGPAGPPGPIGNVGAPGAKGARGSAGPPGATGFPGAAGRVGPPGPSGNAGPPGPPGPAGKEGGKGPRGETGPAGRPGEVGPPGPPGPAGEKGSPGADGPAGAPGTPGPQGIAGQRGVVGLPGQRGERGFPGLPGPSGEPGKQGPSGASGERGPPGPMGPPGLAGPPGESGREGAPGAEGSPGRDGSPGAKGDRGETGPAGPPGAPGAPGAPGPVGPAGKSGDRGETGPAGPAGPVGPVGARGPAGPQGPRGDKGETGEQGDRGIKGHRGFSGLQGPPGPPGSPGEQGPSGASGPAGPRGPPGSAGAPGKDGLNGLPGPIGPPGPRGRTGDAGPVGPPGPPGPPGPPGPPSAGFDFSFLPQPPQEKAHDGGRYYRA
human collagen type I, acid soluble, extracted from placenta (Sigma C7774) (human), sequence (P08123 80-1119 limits assumed, chain 2 of 2, further chain): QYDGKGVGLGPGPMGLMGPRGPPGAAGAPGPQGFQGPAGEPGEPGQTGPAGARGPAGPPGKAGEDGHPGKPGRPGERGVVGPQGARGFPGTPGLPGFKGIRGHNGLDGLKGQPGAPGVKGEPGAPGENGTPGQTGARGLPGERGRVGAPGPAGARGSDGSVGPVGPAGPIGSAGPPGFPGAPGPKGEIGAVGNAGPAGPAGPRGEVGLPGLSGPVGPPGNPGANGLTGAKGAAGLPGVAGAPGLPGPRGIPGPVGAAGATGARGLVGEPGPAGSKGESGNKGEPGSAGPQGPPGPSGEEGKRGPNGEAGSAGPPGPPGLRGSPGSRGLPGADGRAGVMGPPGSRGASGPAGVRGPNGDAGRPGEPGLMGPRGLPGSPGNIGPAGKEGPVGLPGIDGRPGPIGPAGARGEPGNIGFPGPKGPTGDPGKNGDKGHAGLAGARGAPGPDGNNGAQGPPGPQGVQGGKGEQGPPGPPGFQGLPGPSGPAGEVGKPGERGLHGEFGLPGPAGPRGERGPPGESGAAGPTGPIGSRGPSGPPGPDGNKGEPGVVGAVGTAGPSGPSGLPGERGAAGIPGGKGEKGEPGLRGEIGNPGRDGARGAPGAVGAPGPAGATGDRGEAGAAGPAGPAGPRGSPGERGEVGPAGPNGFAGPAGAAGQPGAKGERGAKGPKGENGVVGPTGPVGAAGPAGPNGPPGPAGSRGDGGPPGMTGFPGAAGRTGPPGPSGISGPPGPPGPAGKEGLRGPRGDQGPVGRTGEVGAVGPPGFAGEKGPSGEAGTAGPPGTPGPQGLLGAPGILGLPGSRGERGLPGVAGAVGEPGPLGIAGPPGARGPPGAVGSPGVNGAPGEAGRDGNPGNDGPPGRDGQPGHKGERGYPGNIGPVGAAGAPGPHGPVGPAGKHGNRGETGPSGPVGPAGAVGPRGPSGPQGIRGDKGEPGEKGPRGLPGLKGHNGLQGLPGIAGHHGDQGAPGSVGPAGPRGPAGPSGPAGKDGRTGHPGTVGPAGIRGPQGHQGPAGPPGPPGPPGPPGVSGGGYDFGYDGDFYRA

One experiment concerns the target human collagen type I, acid soluble, extracted from placenta (Sigma C7774) (human) (UniProt P02452). Briefly: dried collagen assay.
In the case of B1, the % bound came out at 8%. Same read-out and setting: the result for B2 reads 3%; that for B3, 5%. Same read-out and setting: the result for B4 reads 2%; that for B5, 4%; that for B6, 4%. The molecule B7 came in with a % bound of 4%. The same measure, in the same setting: the result for B8 reads 2%. The molecule B9 yielded a % bound of 2%. On the same count and under the same terms, next, B10: 8%; B11: 3%. Still for that read-out and setting: the result for B12 reads 2%; that for B13, 2%. The same measure, in the same setting: the result for B14 reads 4%; that for B15, 37%. Molecule B16 registered a % bound of 8%. On the same count and under the same terms, the result for B17 reads 6%.

The target in another experiment is rat collagen, acid soluble, type I, rat tail (Upstate 08-115) (rat) (UniProt P02454). The experiment in a line: dried collagen assay.
rat collagen, acid soluble, type I, rat tail (Upstate 08-115) (rat), sequence (P02454 152-1207, chain 1 of 2): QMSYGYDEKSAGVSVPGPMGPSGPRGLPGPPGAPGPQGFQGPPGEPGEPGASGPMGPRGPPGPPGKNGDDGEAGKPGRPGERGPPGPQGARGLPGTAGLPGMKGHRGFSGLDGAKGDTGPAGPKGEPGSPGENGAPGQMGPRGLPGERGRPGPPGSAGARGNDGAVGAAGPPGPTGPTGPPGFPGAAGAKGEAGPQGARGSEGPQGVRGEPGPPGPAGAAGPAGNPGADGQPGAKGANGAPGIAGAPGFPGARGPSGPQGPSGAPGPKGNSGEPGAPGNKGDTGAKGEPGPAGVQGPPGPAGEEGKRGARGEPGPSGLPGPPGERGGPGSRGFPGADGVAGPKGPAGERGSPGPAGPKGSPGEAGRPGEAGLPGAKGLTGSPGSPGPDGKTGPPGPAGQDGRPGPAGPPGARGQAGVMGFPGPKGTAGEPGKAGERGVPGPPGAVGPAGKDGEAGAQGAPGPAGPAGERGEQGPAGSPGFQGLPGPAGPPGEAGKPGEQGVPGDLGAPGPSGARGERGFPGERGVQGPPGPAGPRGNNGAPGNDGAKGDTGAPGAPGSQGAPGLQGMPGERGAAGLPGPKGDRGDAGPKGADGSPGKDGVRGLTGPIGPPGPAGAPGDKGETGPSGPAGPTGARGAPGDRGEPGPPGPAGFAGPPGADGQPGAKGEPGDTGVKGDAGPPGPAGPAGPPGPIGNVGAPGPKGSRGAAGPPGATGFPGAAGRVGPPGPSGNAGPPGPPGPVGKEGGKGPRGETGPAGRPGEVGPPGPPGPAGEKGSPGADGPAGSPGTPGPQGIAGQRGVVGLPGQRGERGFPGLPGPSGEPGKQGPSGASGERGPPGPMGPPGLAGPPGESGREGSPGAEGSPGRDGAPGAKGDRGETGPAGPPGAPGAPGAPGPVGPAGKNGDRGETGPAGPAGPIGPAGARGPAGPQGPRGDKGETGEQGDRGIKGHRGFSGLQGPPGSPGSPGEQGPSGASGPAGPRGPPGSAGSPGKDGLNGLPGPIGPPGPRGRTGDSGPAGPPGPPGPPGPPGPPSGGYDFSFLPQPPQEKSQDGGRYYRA
rat collagen, acid soluble, type I, rat tail (Upstate 08-115) (rat), sequence (P02466 86-1125, chain 2 of 2, further chain): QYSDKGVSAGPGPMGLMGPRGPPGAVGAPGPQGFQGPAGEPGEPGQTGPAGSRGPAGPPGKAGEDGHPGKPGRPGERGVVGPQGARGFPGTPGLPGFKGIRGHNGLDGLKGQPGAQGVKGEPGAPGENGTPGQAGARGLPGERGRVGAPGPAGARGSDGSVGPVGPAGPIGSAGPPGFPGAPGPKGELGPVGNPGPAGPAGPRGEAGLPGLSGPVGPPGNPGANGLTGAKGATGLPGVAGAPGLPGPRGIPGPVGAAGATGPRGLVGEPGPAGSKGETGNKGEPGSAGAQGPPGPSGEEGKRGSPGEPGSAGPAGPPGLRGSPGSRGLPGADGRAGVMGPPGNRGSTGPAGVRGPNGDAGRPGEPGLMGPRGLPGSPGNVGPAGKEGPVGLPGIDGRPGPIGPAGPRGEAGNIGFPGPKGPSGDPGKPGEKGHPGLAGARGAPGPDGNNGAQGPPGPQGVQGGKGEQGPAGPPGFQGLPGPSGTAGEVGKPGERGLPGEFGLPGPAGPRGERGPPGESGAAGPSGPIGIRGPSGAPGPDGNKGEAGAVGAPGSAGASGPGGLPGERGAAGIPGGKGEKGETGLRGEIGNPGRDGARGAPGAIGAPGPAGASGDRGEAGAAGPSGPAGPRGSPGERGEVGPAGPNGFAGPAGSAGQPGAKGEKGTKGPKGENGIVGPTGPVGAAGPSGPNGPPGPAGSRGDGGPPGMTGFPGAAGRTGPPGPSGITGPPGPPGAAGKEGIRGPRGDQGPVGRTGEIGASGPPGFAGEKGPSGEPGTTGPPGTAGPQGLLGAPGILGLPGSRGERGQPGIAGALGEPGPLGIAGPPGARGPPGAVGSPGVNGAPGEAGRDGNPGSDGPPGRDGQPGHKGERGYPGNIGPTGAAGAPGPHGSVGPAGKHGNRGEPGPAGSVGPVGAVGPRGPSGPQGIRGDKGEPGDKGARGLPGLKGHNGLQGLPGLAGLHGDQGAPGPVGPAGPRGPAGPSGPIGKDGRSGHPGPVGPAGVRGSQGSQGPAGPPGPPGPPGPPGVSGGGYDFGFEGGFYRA
The molecule B1 gave a % bound of 5%. Same read-out and setting: next, B2: 2%; B18: 9%. On the same count and under the same terms, the result for B19 reads 3%; that for B3, 4%. On to B4, for which the % bound worked out at 3%.

Take B5: the % bound came out at 2%. Take B6: the % bound turned out to be 5%. Still for that read-out and setting: next, B20: 4%.

Turning to B21, the % bound is 4%. B22: the % bound was 8%.

Turning to B7, the % bound came out at 7%. Same read-out and setting: the result for B8 reads 2%; that for B9, 4%; that for B10, 9%. Same read-out and setting: next, B11: 5%; B12: 2%.

B23 displayed a % bound of 7%. On the same count and under the same terms, next, B13: 2%; B24: 6%. Still for that read-out and setting: next, B14: 5%; B25: 3%; B15: 53%. The same measure, in the same setting: next, B26: 8%. B27 showed a % bound of 8%. On the same count and under the same terms, the result for B28 reads 5%. Still for that read-out and setting: the result for B16 reads 2%. Still for that read-out and setting: the result for B29 reads 4%; that for B30, 5%; that for B17, 1%.
